Key:
Assay in all cases: co-IP
[1] = target: CD7BB1 (human | canine) (UniProt P09564)
[2] = target: GP2CAD1 (rat | canine)
[3] = target: CD7BB1 (human | canine) (UniProt P09564); remark: listed apart in the source

UniProt P09564, sequence (P09564 whole entry): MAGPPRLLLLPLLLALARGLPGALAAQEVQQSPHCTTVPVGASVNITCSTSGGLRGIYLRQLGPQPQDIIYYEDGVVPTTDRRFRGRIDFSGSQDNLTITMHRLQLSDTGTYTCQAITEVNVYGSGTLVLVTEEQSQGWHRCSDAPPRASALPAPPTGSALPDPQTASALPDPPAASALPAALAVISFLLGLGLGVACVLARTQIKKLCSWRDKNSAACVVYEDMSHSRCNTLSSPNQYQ

stoichiometry N (α-catenin per 5 CD7BB1) [1] | stoichiometry N (β-catenin per GP2CAD1) [2] | stoichiometry N (β-catenin per 5 CD7BB1) [3] | Molecule
0.8 |  |  | α-catenin (natural protein)
 | 1 | 1 | β-catenin (natural protein) MATQADLMELDMAMEPDRKAAVSHWQQQSYLDSGIHSGATTTAPSLSGKGNPEEEDVDTTQVLYEWEQGFSQSFTQEQVADIDGQYAMTRAQRVRAAMFPETLDEGMQIPSTQFDAAHPTNVQRLAEPSQMLKHAVVNLINYQDDAELATRAIPELTKLLNDEDQVVVNKAAVMVHQLSKKEASRHAIMRSPQMVSAIVRTMQNTNDVETARCTAGTLHNLSHHREGLLAIFKSGGIPALVKMLGSPVDSVLFYAITTLHNLLLHQEGAKMAVRLAGGLQKMVALLNKTNVKFLAITTDCLQILAYGNQESKLIILASGGPQALVNIMRTYTYEKLLWTTSRVLKVLSVCSSNKPAIVEAGGMQALGLHLTDPSQRLVQNCLWTLRNLSDAATKQEGMEGLLGTLVQLLGSDDINVVTCAAGILSNLTCNNYKNKMMVCQVGGIEALVRTVLRAGDREDITEPAICALRHLTSRHQEAEMAQNAVRLHYGLPVVVKLLHPPSHWPLIKATVGLIRNLALCPANHAPLREQGAIPRLVQLLVRAHQDTQRRTSMGGTQQQFVEGVRMEEIVEGCTGALHILARDVHNRIVIRGLNTIPLFVQLLYSPIENIQRVAAGVLCELAQDKEAAEAIEAEGATAPLTELLHSRNEGVATYAAAVLFRMSEDKPQDYKKRLSVELTSSLFRTEPMAWNETADLGLDIGAQGEPLGYRQDDPSYRSFHSGGYGQDALGMDPMMEHEMGGHHPGADYPVDGLPDLGHAQDLMDGLPPGDSNQLAWFDTDL
